US20040166543A1 (Dana-Farber, published 2004)

Target: T1, MUC1 (full-length wild-type DF3/MUC1 glycoprotein) (human, UniProt P15941 24-1255)
T1 construct: whole, on cells; One entry for endogenous and transfected wild-type MUC1; Co-immunoprecipitated from NP-40 lysates with mAb DF3; also called wild-type MUC1
Assay: co-IP from ZR-75-1 lysate: anti-MUC1 IP, anti-PKCµ blot (FIG. 13B)

B1: PKCµ (protein kinase Cµ), endogenous in ZR-75-1 cells (enzyme, human, UniProt Q15139 1-912, looked up)
chain: MSAPPVLRPPSPLLPVAAAAAAAAAALVPGSGPGPAPFLAPVAAPVGGISFHLQIGLSREPVLLLQDSSGDYSLAHVREMACSIVDQKFPECGFYGMYDKILLFRHDPTSENILQLVKAASDIQEGDLIEVVLSASATFEDFQIRPHALFVHSYRAPAFCDHCGEMLWGLVRQGLKCEGCGLNYHKRCAFKIPNNCSGVRRRRLSNVSLTGVSTIRTSSAELSTSAPDEPLLQKSPSESFIGREKRSNSQSYIGRPIHLDKILMSKVKVPHTFVIHSYTRPTVCQYCKKLLKGLFRQGLQCKDCRFNCHKRCAPKVPNNCLGEVTINGDLLSPGAESDVVMEEGSDDNDSERNSGLMDDMEEAMVQDAEMAMAECQNDSGEMQDPDPDHEDANRTISPSTSNNIPLMRVVQSVKHTKRKSSTVMKEGWMVHYTSKDTLRKRHYWRLDSKCITLFQNDTGSRYYKEIPLSEILSLEPVKTSALIPNGANPHCFEITTANVVYYVGENVVNPSSPSPNNSVLTSGVGADVARMWEIAIQHALMPVIPKGSSVGTGTNLHRDISVSISVSNCQIQENVDISTVYQIFPDEVLGSGQFGIVYGGKHRKTGRDVAIKIIDKLRFPTKQESQLRNEVAILQNLHHPGVVNLECMFETPERVFVVMEKLHGDMLEMILSSEKGRLPEHITKFLITQILVALRHLHFKNIVHCDLKPENVLLASADPFPQVKLCDFGFARIIGEKSFRRSVVGTPAYLAPEVLRNKGYNRSLDMWSVGVIIYVSLSGTFPFNEDEDIHDQIQNAAFMYPPNPWKEISHEAIDLINNLLQVKMRKRYSVDKTLSHPWLQDYQTWLDLRELECKIGERYITHESDDLRWEKYAGEQGLQYPTHLINPSASHSDTPETEETEMKALGERVSIL
notes: whole, on cells
binding result: no binding
